Test: yeast display, Sf9 membrane polyspecificity reagent, FACS + sequencing; frameworks hold sequencing errors
Outline: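 After 36–48 hours of galactose induction, yeast (Saccharomyces cerevisiae BJ5465) displaying a synthetic nanobody library were stained at 4 °C for 1 hour with 10% biotinylated, detergent-solubilized Sf9 membrane reagent. Streptavidin microbeads enriched the stained cells before FACS sorting into low and high (top ~1%) gates on anti-HA and streptavidin fluorescence. Each clone's polyreactivity label reflects its gate of origin.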

Row | Sequence | polyreactivity (PSR sort gate)
1 | QVQLVESGGGLVQAGGSLRLSCAASGSIFGAYAMGWYRQAPGKERELVAAISSSVDRTYYADSVKGRFTISRDNAKNTVYLQMNSLKPEDTAVYYCAARWGTRDRTKYYYWGQGTQVTVSS | high polyreactivity
2 | QVQLVESGGGLVQAGGSLRLSCAASGSIFGDNAMGRYRQAPGKERELVAVISSSGSTYYADSVKGRFTISRDTAMNTVYLQMNSLKAEDTAVYYCNAYEFDWYEEYYYWGQGTQVTVSS | low polyreactivity
3 | QVQLVESGGGLVQAGGSLRLSCAASGSIFGDNAMGWYRQAPGKERELVAAISGSTGSTNYADSVKGRFTISRDNAKNTVYLQMNSLKPEDTAVYYCNVGGLEYFVFKGVSVPDDYWGQGTQVTVSS | low polyreactivity
4 | QVQLVESGGGLVQAGGSLRLSCAASGSIFGDNAMGWYRQAPGKERELVASITWSGGSTFYADSVKGRFTISRDNAQITVYLQMNSLKPEDTAVYYCAADTAEYLYDMDYWGQGTQVTVSS | low polyreactivity
5 | QVQLVESGGGLVQAGGSLRLSCAASGSIFGDYAMGWSSQAPGKEGELVAAISRGDGTYYADSVKGRFTISRDNAKNTVYLQMNSLKPEDTAVYYCNAGGRYHAPSGDFWGQGSQVTVSS | low polyreactivity
6 | QVQLVESGGGLVQAGGSLRLSCAASGSIFGDYAMGWYRQAPGKEREFVAGITRRGGRTYYADSVKGRFTISRDNAKNTVYLQMHSLKPEDTAVYYCNAVYSSSLRSKYDYWGQGTQVTVSS | high polyreactivity
7 | QVQLVESGGGLVQAGGSLRLSCAASGSIFGDYAMGWYRQAPGKERELVAGITQSGSSTYYADSVKGRFTISRDNAKNTVYLQMNSLKPEDTAVYYCNKDWGPGPNEFDYWGQGTQVTVSS | low polyreactivity
8 | QVQLVESGGGLVQAGGSLRLSCAASGSIFGENAMGWYRQAPGKERELVAAITSGGSTDYADSVKGRFTISRDNAKNTVYLQMNSLKPEDTAVYYCAASGRVGPGYWYDSWGQGTQVTVSS | low polyreactivity
9 | QVQLVESGGGLVQAGGSLRLSCAASGSIFGEYVRGWYREAPGKERELVADISWRDGDTYYADSEKGRFTISRDNAKNTVYLQMNSLKPEDTAVYYCAADVIVPESYGYWPLSYYYWGQGTQVTVSS | low polyreactivity
10 | QVQLVESGGGLVQAGGSLRLSCAASGSIFGFNALGWYRQAPGKERELVASITWSGSSTYYADSVKGRFTISRDNAKNTVYLQMNSLKPEDTAVYYCAKEFVHTHFYLWHVFKYGYWGQGTQVTVSS | low polyreactivity
11 | QVQLVESGGGLVQAGGSLRLSCAASGSIFGFNTMGWYRQAPGKEMELVATINWSGGSTYYADSVKGRFTISRDNAKNTVYLQMNSLKPEDTAVYYCNAGPFSGRLFTTYASWGRYDYWGQGTQVTVSS | low polyreactivity
12 | QVQLVESGGGLVQAGGSLRLSCAASGSIFGFYMGWYRQAPGKERELVAAISGSGGNTYYADSVKGRFTISRDNAKNTVYLQMNSLKPEDTAVYYCAVRYPGSRYLISKNGYWGQGTQVTVSS | high polyreactivity
13 | QVQLVESGGGLVQAGGSLRLSCAASGSIFGGNAMGWYRQAPGKEREFVARITKRGGSTDYADSVKGRFTISRDNAKNTVYLQMNSLKPEDTAVYYCATGWTSKVHYRYGYWGQGTQVTVSS | high polyreactivity
14 | QVQLVESGGGLVQAGGSLRLSCAASGSIFGGNAMGWYRQAPGKERELVAAITYSGGSTYYADSVKGRFTISRDNAKNTVYLQMNSLKPEDTAVYYCAASASVRGGGADQYVIAFDYWGQGTQVTVSS | low polyreactivity
15 | QVQLVESGGGLVQAGGSLRLSCAASGSIFGGNAMGWYRQAPGKERELVATITVRGGSTYYADSVKGRFTISRDNAKHTVYLQMNSLKPEDTAVYYCAARGGYLLPKYDYWGQGTQVTVSS | low polyreactivity
16 | QVQLVESGGGLVQAGGSLRLSCAASGSIFGGNDMGWYRQAPGKERELVAAITSSGGSTYYADSVKGRFTISRDNAKNTVYLQMNSLKPEDTAVYYCYADYYGPYRDYGYWGQGTQVTVSS | low polyreactivity
17 | QVQLVESGGGLVQAGGSLRLSCAASGSIFGGYAMGWYRQAPGKEGELVAAISWSSSSTYYADSVKGRFTMSRDNAKNTVYLQMNSLKPEDTAVYYCATGIYPQTSDYDYWGQGTQVTVSS | low polyreactivity
18 | QVQLVESGGGLVQAGGSLRLSCAASGSIFGGYAMGWYRQAPGKERELVAAITWGGGSTYYADSVKGRFTISRDNAKNTVYLQMNSLKPEDTAVYYCAADRSWYDWEDDYWGQGTQVTVSS | low polyreactivity
19 | QVQLVESGGGLVQAGGSLRLSCAASGSIFGGYAMGWYRQAPGKERELVARIRGSTGSTYYADSVKGRFTISRDNAKNTVYFQMNSLKPEDTAVYYCNARYKYYRGSGMDSWGQGTQVTVSS | high polyreactivity
20 | QVQLVESGGGLVQAGGSLRLSCAASGSIFGGYAMGWYRQAPGKERELVATINLGGGSTYADSVKGRFTISRDNAKNTVYLQMNSLKPEDTAVYYCAADVANSIYDYWGQGTQVTVSS | low polyreactivity
21 | QVQLVESGGGLVQAGGSLRLSCAASGSIFGGYAMGWYRQAPGKERELVATSYADSVKGRFTISRDNAKNTVYLQMNSLKPEDTAVYYCAADPPLEGGHGYNYWGQGTQVTVSS | low polyreactivity
22 | QVQLVESGGGLVQAGGSLRLSCAASGSIFGGYGLGWYRQAPGKERELVAASTSGSSTYYADSVKGRFTISRDNAKNTVYFPMNSLKPEDTAVSYFAARPFPHSAYEGDYWGRGTQVTVSS | low polyreactivity

Row | Sequence | polyreactivity (PSR sort gate)
23 | QVQLVESGGGLVQAGGSLRLSCAASGSIFGGYTKGWYRQAPWKERELVAAISRRGGNTYYADSVKGRFTISRDNAQITVYLQMNSLKPEDTAVYYCAVLWPSARIPVKLDYWGQGTQVTVSS | high polyreactivity
24 | QVQLVESGGGLVQAGGSLRLSCAASGSIFGHNAMGWYRQAPGKERELVAAITSTGGSTYYADSVKGRFTISRDNAKNTVYLQMNSLKPEDTAVYYCAKGWYAGYPYDYWGQGTQVTVSS | low polyreactivity
25 | QVQLVESGGGLVQAGGSLRLSCAASGSIFGINAMGWYRQAPGKERELVAGISSRGGSTYYADSVKGRFTISRDNAKNTVYLQMNSLKPEDTAVYYCAKRYGRRYGRLHDYWGQGTQVTVSS | high polyreactivity
26 | QVQLVESGGGLVQAGGSLRLSCAASGSIFGINVMGWYRHAPGKDREFVAAITSGTSTYYADSVKGRFTISRDNAKNSVYLQMNSLKPEDTAVYYCAALWSSRFVVHPQWYDYWGQGTQVTVSS | low polyreactivity
27 | QVQLVESGGGLVQAGGSLRLSCAASGSIFGINVMGWYRQAPGKERELVAAITSGTSTYYADSVKGLFTISRDNANNTVYLQMNSLKPEDTAVYYCAALWSSRFVVHPQWYDYWGQGTQVTVSS | low polyreactivity
28 | QVQLVESGGGLVQAGGSLRLSCAASGSIFGIYAMGWYRQAPGKERELVAAISRGGSTYYADSVKGRFTISRDNAKNTVYLQMNSLKPEDTAVYYCNAKLIVTPGRGDYWGQGTQVTVSS | high polyreactivity
29 | QVQLVESGGGLVQAGGSLRLSCAASGSIFGIYTMGWYRQAPGKERELVAAINSGGSTNYADSVKGRFTISRDNAKNTVYLQMNSLKPEDTAVYYCNAYIHPPGPRVYSREYDYWGHGTQVTVSS | low polyreactivity
30 | QVQLVESGGGLVQAGGSLRLSCAASGSIFGIYVMGWYRQAPGKERELVAAISDGGSTYYADSVKGRFTISRDNAKNTVYLQMNSLKPEDTAVYYCAAEVHGWYSYYYWGQGTQVTVSS | high polyreactivity
31 | QVQLVESGGGLVQAGGSLRLSCAASGSIFGKNVMGWYRQAPGKDRELVAAITSGASTYYADSVKGRFTISRDNAKNTDYLQMNSLKPDDTAVYYCAARRWRKYYSGYNYWGHGTQVTVSS | high polyreactivity
32 | QVQLVESGGGLVQAGGSLRLSCAASGSIFGKYAMGWYRQAPGKERELVAAITWSGGSTRYADSVKGRFTISRDNAKNTVYLQMNSLKPEDTAVYYCAAPSTESKYYYWGQGTQVTVSS | high polyreactivity
33 | QVQLVESGGGLVQAGGSLRLSCAASGSIFGLNAMGWSRPAPGKERELVAAISGGSTNYADSVKGRFTISRDNAKNTVYLQMNSLKPEDTAVYYCAARARRRYYYWGQGTQVTVSS | high polyreactivity
34 | QVQLVESGGGLVQAGGSLRLSCAASGSIFGLNGMGWYIQAPGKERELVASISASGGSTYYADSVKGRFTISRDNAKNTVYLQMNSLKPEDTAVYYCAARVVYGAGLSSSGPKQYTRRFYYWGQGTQVTVSS | high polyreactivity
35 | QVQLVESGGGLVQAGGSLRLSCAASGSIFGLYAMGCYRQAPGKERELVAAITWSSGNTYYADSVKGRFTISRDNAKNTVYLQMNSLKPEDTAVYYCAAEQIYFVYWEDDYWGQGTQVTVSS | high polyreactivity
36 | QVQLVESGGGLVQAGGSLRLSCAASGSIFGLYAMGWSRQAPGKERELVASITGGGGTYYADSVKGRFTISRDNAKNTVYLQMNSLKPEDTAVYYCAAALYFGGDSYYYWGQGTQVTVSS | low polyreactivity
37 | QVQLVESGGGLVQAGGSLRLSCAASGSIFGLYAMGWYRQAPGKERELVAAINQSGGSTSYADSVKGRFTISRDTAKNTVYLQMNSLKPEDTAVYYCAVAIVTSGPFPRDYWGQGTQVTVSS | low polyreactivity
38 | QVQLVESGGGLVQAGGSLRLSCAASGSIFGLYAMGWYRQAPGKERELVAAINWNGGDTYYADSVKGRFTISRDYAKNTVYLQMNSLKPEDTAVYYCAAEQYRYGIRRRHYDYWGQGTEVTVSS | low polyreactivity
39 | QVQLVESGGGLVQAGGSLRLSCAASGSIFGLYAMGWYRQAPGKERELVAAITASDGSTYYADSVKGRFTISRDNAKNTVYLQMNSLKPEDTADYYCNADAYSGYFLFDYWGQGTQVTVSS | low polyreactivity
40 | QVQLVESGGGLVQAGGSLRLSCAASGSIFGLYVMGWDRQAPGKERELVATITSGGSTYYADSVKGRFTISRDNAKNTVYLQMNSLKPEDTAVYYCAADPQDAAYLKYLFYDYDYWGQGTQVTVSS | low polyreactivity
41 | QVQLVESGGGLVQAGGSLRLSCAASGSIFGLYVMGWYRQAPGKERELVAAITGRGGSTYYADSVKGRFTISRDNAKNTVYLQMNSLKPEDTAVYYCAALRYTFAGRFDYWGQGTQVTVSS | high polyreactivity
42 | QVQLVESGGGLVQAGGSLRLSCAASGSIFGNYAMGWYRQAPGKEREFVAAITWIGGSSYYADSVKGRFTISRDNAKNTVYLQMHSLKPEDTAVYYCARTSYARYRNGWTYDHWGQGTQVTVSS | low polyreactivity
43 | QVQLVESGGGLVQAGGSLRLSCAASGSIFGNYAMGWYRQAPGKEREFVARISRGARTYYADSVKGRFTISRDNAKNTVYLQMNSLKPEDTAVYYCNARDYSVSYSVRFDYWGQGTQVTVSS | high polyreactivity

Reference: the nanobody polyreactivity screen of Harvey et al. (2022)
